B1: C10orf62 (parent)
chain: TSECPSDKDKSPESHKAKNESWIK
B2: TRIM43 (parent)
chain: FCDMDKSLLCLLCSNSQEHGAHKH

Variants of: B1
Assay: protein stability index of a GFP-peptide fusion (GPS, HEK-293T) (PSI 1-6); higher = more stable
Details: c terminus: a fixed tail appended
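Note: lentivirally expressed fusions sorted by FACS into six bins by GFP to DsRed ratio, PSI derived from sequencing read proportions per bin multiplied by bin number.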

Protein stability index, by site and new letter:
K18: C 4.37; Q 3.9; P 3.74; D 3.84; S 4.15; I 3.01; M 3.77; N 3.6; V 3.56; G 3.9; H 4.03; W 3.26; A 3.67; Y 4.32; F 4.09; T 4.02; R 3.51; L 4.18; E 3.83
N19: A 2.83; Y 3.11; R 2.84; D 3.99; T 2.94; W 3.46; G 3.92; P 3.19; H 2.42; L 3.3; Q 3.13; F 2.87; C 3.63; E 4.23; I 4.02; S 3.97; V 3.41; M 3.64
K24: Y 3.16; A 2.9; E 2.15; Q 2.27; F 3.37; S 3.48; N 3.17; I 2.69; T 3.18; M 2.76; W 3.43; V 2.96; R 3.92; L 2.66; D 2.99; G 3.77; H 3.56; P 4.73; C 3.2
E20: H 4.51; I 4.38; N 4.69; R 4.09; D 4.02; T 4.39; F 4.74; K 4.37; M 3.05; A 5.18; Q 4.13; S 4.29; L 4.56; V 3.77; Y 4.2; W 4.72; P 4.83; G 4.3; C 4.47
W22: L 4.7; D 5.78; V 5.79; Q 5.8; H 5.83; N 5.73; G 5.58; T 5.54; M 5.6; Y 5.23; C 5.18; R 5.84; K 5.46; I 5.72; P 5.54; S 5.82; E 5.67; F 5.62; A 5.34
I23: P 5.81; S 3.79; H 5.18; F 5.32; K 4.59; R 5.25; T 3.33; V 1.74; G 5.32; Q 2.89; Y 5.21; M 4.7; L 4.46; W 5.11; N 5.17; E 3.96; A 3.68; D 5.72; C 2.89
S21: K 4.84; A 4.61; R 4.9; F 5.12; M 4.36; I 4.77; Y 4.3; E 5.3; C 4.11; H 4.95; V 4.47; T 3.97; N 5.12; L 3.65; D 5.57; Q 4.62; P 3.56; W 4.49; G 4.34
A17: Y 3.5; T 3.14; V 3.37; S 3.48; W 3.5

Variants of: B2
Assay: as above
Details: c terminus: a fixed tail appended

Protein stability index of substitutions, site by site:
M4: N 1.85; S 2.19; G 1.96; H 3.6; V 2.11; E 2.58; D 2.86; C 3.14; W 2.13; I 1.96; R 2.16; Q 1.88; L 1.98; A 2.07; P 2; K 1.7; F 2.04; T 1.64; Y 2.07
S7: G 1.92; D 2.48; I 1.84; K 1.92; Q 2.54; A 1.77; C 2.26; N 2.22; V 1.79; R 1.65; H 2.22; F 2.72; T 2.04; P 2.62; M 2.23; E 2.12; W 1.79; L 1.93; Y 2.1
L9: T 2.29; V 2.16; A 1.99; Q 2.68; Y 1.46; R 2.08; S 1.88; H 1.93; I 1.91; M 1.92; N 2.52; P 2.84; D 2.78; E 2.99; K 2.61; F 1.89; W 1.55; G 1.64; C 2.36
F1: R 3.57; D 3.56; H 3.64; W 2.45; N 3.57; A 3.33; P 3.6; C 3.54; S 3.72; K 3.56; E 4.17; T 3.21; Y 1.88; G 3.49; V 3.25; M 3.41; L 3.21; Q 3.72; I 2.81
D3: E 2.09; Q 2.07; M 2.54; K 2.35; Y 2.48; V 2.76; P 1.67; A 2.15; R 1.99; T 1.82; W 1.8; I 1.94; L 1.93; C 2.26; S 1.99; F 2; G 1.99; N 1.75; H 2.35
D5: C 2.02; M 2.97; T 2.34; H 3.33; L 2.69; W 3.29; N 1.8; S 1.79; Y 2.18; Q 1.98; E 1.92; I 3.01; V 2.74; A 2.67; P 2.29; K 2.22; F 3.03; G 2.33; R 1.74
L11: E 2.93; C 1.44; F 2.04; H 2.04; A 2.21; D 2.75; G 1.93
C2: L 2.21; D 3.65; T 1.84; A 1.54; K 3.4; M 2.31; I 1.8; V 1.86; N 2.58; G 1.77; W 2.38; E 3.4; Q 2.43; P 2.76; Y 2.9; F 2.23; S 2.51; R 2.84; H 2.22
K6: R 1.56; S 2.17; W 2.04; Y 2.17; V 1.74; C 1.95; P 2.12; A 2.06; L 1.97; H 2.09; E 2.29; T 1.94; M 2.21; D 2.96; N 2.32; I 2.04; F 2.24; Q 2.38; G 2.18
C10: G 1.64; D 2.18; Y 2.65; H 2.03; M 2.15; T 1.72; P 2.3; K 2.04; R 1.7; I 2.06; W 2.57; E 2.23; L 2.14; V 1.86; S 1.59; N 1.83; Q 1.86; F 2.58; A 2.23
L8: D 3.41; Q 2.82; I 1.96; N 2.81; K 2.86; R 2.71; P 2.51; H 2.54; F 2.5; A 2.43; Y 2.03; V 2.72; E 3.8; G 2.3; T 2.32; S 3.1; M 2.31; W 2.3; C 2.64

— the supplement of paper PMC10567573
